Twelve molecules from PMC6323126, “Architecture, substructures, and dynamic assembly of STRIPAK complexes in Hippo signaling” (Cell Discovery, 2019) can be followed below.

B2: MST2 (recombinant, wildtype) (enzyme, human, UniProt Q13188 1-491, looked up)
chain: MEQPPAPKSKLKKLSEDSLTKQPEEVFDVLEKLGEGSYGSVFKAIHKESGQVVAIKQVPVESDLQEIIKEISIMQQCDSPYVVKYYGSYFKNTDLWIVMEYCGAGSVSDIIRLRNKTLIEDEIATILKSTLKGLEYLHFMRKIHRDIKAGNILLNTEGHAKLADFGVAGQLTDTMAKRNTVIGTPFWMAPEVIQEIGYNCVADIWSLGITSIEMAEGKPPYADIHPMRAIFMIPTNPPPTFRKPELWSDDFTDFVKKCLVKNPEQRATATQLLQHPFIKNAKPVSILRDLITEAMEIKAKRHEEQQRELEEEEENSDEDELDSHTMVKTSVESVGTMRATSTMSEGAQTMIEHNSTMLESDLGTMVINSEDEEEEDGTMKRNATSPQVQRPSFMDYFDKQDFKNKSHENCNQNMHEPFPMSKNVFPDNWKVPQDGDFDFLKNLSLEELQMRLKALDPMMEREIEELRQRYTAKRQPILDAMDAKKRRQQNF
notes: MST2 (STK3), human; also called STK3; Hippo kinase MST2; source: E. coli BL21 (DE3) CodonPlus, purified
B5: STRN3 coiled-coil domain (CC, amino acid residues 64–145) (domain or fragment, human, UniProt Q13033 64-145, looked up)
chain: TIPGILHYIQHEWARFEMERAHWEVERAELQARIAFLQGERKGQENLKKDLVRRIKMLEYALKQERAKYHKLKYGTELNQGD
notes: also called STRN3 CC; source: E. coli BL21 (DE3) CodonPlus, purified
B7: MST4 kinase domain (residues 1–300) (domain or fragment)
chain: not shown
notes: MST4 (STK26), human, residues 1-300; also called N-terminal kinase domain of MST4; source: E. coli BL21 (DE3) CodonPlus, purified
B11: SIKE1 second coiled-coil (CC2) region, residues 72–121 (domain or fragment, human, UniProt Q9BRV8 72-121, looked up)
chain: LLSQENTQIRDLQQENRELWISLEEHQDALELIMSKYRKQMLQLMVAKKA
notes: Homotetramer in the apo crystal, homodimer in the crystal with the STRN3 peptide; A Se-Met form was used for phasing; also called SIKE1 CC2; source: E. coli BL21 (DE3) CodonPlus, purified

Data set [1] concerns the target T1, STRIP1 (full-length, His-tagged, insect cells) (UniProt Q5VSL9 1-837).
T1 construct: STRIP1, full length; His tag is TEV-cleavable; also called His-STRIP1; FAM40A; source: High Five insect cells (baculovirus), purified
The data set is described as follows: pull-down; MBP pulldown: MBP-tagged protein, partner and amylose resin mixed at 4 °C for 1 h in 20 mM HEPES (pH 7.5), 100 mM NaCl; eluted with 20 mM maltose; SDS-PAGE, Coomassie staining. The conditions noted are these: both partners purified.

The target in data set [2] is T1, STRIP1 (full-length, His-tagged, insect …). Nature of the data set: pull-down; GST pulldown: GST-tagged protein, partner and glutathione Sepharose mixed at 4 °C for 1 h in 20 mM HEPES (pH 7.5), 100 mM NaCl; eluted with 20 mM reduced glutathione; SDS-PAGE, Coomassie staining. The conditions noted are these: both partners purified.
Data set [3] shares this target. The data set is described as follows: pull-down; pulldown with the kinase dephosphorylated with λPPase and then autophosphorylated with ATP (and magnesium ion). The conditions noted are these: both partners purified.
Data set [4] concerns the target B2. Nature of the data set: pull-down; GST pulldown: GST-tagged protein, partner and glutathione Sepharose mixed at 4 °C for 1 h in 20 mM HEPES (pH 7.5), 100 mM NaCl; eluted with 20 mM reduced glutathione; SDS-PAGE, Coomassie staining. The conditions noted are these: both partners purified.
The target of data set [5] is T2, C-terminal domain (residues 421–837) of STRIP1, recombinant (UniProt Q5VSL9 421-837).
T2 sequence (looked up): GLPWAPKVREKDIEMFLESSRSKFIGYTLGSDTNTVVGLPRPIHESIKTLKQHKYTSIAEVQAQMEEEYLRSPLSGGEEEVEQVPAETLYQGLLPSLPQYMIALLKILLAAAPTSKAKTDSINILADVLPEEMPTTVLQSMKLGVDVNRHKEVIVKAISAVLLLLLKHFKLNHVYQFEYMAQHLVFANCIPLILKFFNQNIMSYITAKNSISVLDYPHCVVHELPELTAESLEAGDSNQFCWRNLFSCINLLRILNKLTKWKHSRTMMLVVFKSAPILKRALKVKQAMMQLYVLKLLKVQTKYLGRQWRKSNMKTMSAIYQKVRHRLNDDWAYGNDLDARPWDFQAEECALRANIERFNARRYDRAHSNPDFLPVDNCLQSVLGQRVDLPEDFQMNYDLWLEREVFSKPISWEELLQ
The data set is described as follows: pull-down; pulldown with purified recombinant proteins shown in supplementary figures; whether GST or MBP and who carried the tag not told. The conditions noted are these: both partners purified.

In data set [6] the target is B7. The description is as above. The conditions noted are these: both partners purified.
Data set [7] deals with the molecule itself. The data set is described as follows: crystal structure; SIKE1 CC1-SLMAP CC1 complex reconstituted 1:1 and gel-filtered, 2.3 Å; 0.1 M sodium citrate (pH 5.5), 15% PEG 6000, 16 °C.
In data set [8] the target is T1, STRIP1 (full-length, His-tagged, insect …). The data set is described as follows: pull-down; pulldown with purified recombinant proteins shown in supplementary figures; whether GST or MBP and who carried the tag not told. The conditions noted are these: both partners purified.
In data set [9] the target is B11. The data set is described as follows: crystal structure; SIKE1 CC2 mixed with STRN3 peptide (166–190) at 1:1.2 molar ratio, 1.75 Å; 35% MPD, 0.1 M imidazole (pH 7.5), 16 °C. The conditions noted are these: both partners purified.
The target in data set [10] is B11. Nature of the data set: ITC; iTC200, 25 °C, 20 mM HEPES (pH 7.5), 100 mM NaCl. The conditions noted are these: both partners purified. A general note: ITC needs no label: the signal is the heat of the interaction.
Data set [11] concerns the molecule itself. The data set is described as follows: crystal structure; SIKE1 CC2 mixed with STRN3 peptide (166–190) at 1:1.2 molar ratio, 1.75 Å; 35% MPD, 0.1 M imidazole (pH 7.5), 16 °C.
Data set [12] concerns the molecule itself. Nature of the data set: crystal structure; apo SIKE1 CC2, 1.5 Å; 0.1 M Tris (pH 8.5), 0.7 M ammonium tartrate dibasic, 16 °C.
For data set [13], the target named is B5. Nature of the data set: ITC; iTC200, 25 °C, 20 mM HEPES (pH 7.5), 100 mM NaCl. The conditions noted are these: both partners purified.

B1: MST2 kinase domain (residues 1–308) (domain or fragment, human, UniProt Q13188 1-308, looked up)
chain: MEQPPAPKSKLKKLSEDSLTKQPEEVFDVLEKLGEGSYGSVFKAIHKESGQVVAIKQVPVESDLQEIIKEISIMQQCDSPYVVKYYGSYFKNTDLWIVMEYCGAGSVSDIIRLRNKTLIEDEIATILKSTLKGLEYLHFMRKIHRDIKAGNILLNTEGHAKLADFGVAGQLTDTMAKRNTVIGTPFWMAPEVIQEIGYNCVADIWSLGITSIEMAEGKPPYADIHPMRAIFMIPTNPPPTFRKPELWSDDFTDFVKKCLVKNPEQRATATQLLQHPFIKNAKPVSILRDLITEAMEIKAKRHEEQQRE
notes: also called kinase domain of MST2; source: E. coli BL21 (DE3) CodonPlus, purified
Turning to B1, the binding result in data set [1] is “binds”.

On to B2, for which, in data set [2], the binding result was “binds”.

B3: GST-tagged MST2 (enzyme, human, UniProt Q13188 1-491, looked up)
chain: MEQPPAPKSKLKKLSEDSLTKQPEEVFDVLEKLGEGSYGSVFKAIHKESGQVVAIKQVPVESDLQEIIKEISIMQQCDSPYVVKYYGSYFKNTDLWIVMEYCGAGSVSDIIRLRNKTLIEDEIATILKSTLKGLEYLHFMRKIHRDIKAGNILLNTEGHAKLADFGVAGQLTDTMAKRNTVIGTPFWMAPEVIQEIGYNCVADIWSLGITSIEMAEGKPPYADIHPMRAIFMIPTNPPPTFRKPELWSDDFTDFVKKCLVKNPEQRATATQLLQHPFIKNAKPVSILRDLITEAMEIKAKRHEEQQRELEEEEENSDEDELDSHTMVKTSVESVGTMRATSTMSEGAQTMIEHNSTMLESDLGTMVINSEDEEEEDGTMKRNATSPQVQRPSFMDYFDKQDFKNKSHENCNQNMHEPFPMSKNVFPDNWKVPQDGDFDFLKNLSLEELQMRLKALDPMMEREIEELRQRYTAKRQPILDAMDAKKRRQQNF
notes: MST2 (STK3), human; also called MST2/pMST2; source: E. coli BL21 (DE3) CodonPlus, purified; not shown: GST, N-terminal, kept
As for B3, the binding result in data set [3] is given as “binds”.

B4: MST4 (recombinant) (enzyme)
chain: not shown
notes: MST4 (STK26), human; also called STK26; source: E. coli BL21 (DE3) CodonPlus, purified
B4: the binding result in data set [2] was “binds”.

As for B5, the binding result in data set [4], in data set [5], in data set [6] and in [1] was “binds” each time.

B6: SIKE1 CC1 (residues 5–65) (domain or fragment, human, UniProt Q9BRV8 5-65, looked up)
chain: IEKILTDAKTLLERLREHDAAAESLVDQSAALHRRVAAMREAGTALPDQYQEDASDMKDMS
notes: SIKE1, human, residues 5-65; Homodimer within the 2:2 crystal complex; also called residues 5–65 of SIKE1; source: E. coli BL21 (DE3) CodonPlus, purified
Turning to B6, the “stoichiometry N” value in data set [7] came to 2.

Regarding B7, the binding result in [8] was “binds”.

B8: STRN3 peptide (residues 166–190) (peptide, UniProt Q13033 166-190, looked up)
peptide: QNSQLTWKQGRQLLRQYLQEVGYTD
As for B8, in [9], the “stoichiometry N” value is 2 SIKE1 CC2 per STRN3 peptide. For the same molecule, in data set [10], the Kd is 2.9 µM.

B9: STRN3 fragment (residues 64–341), tag not told (domain or fragment, human, UniProt Q13033 64-341, looked up)
chain: TIPGILHYIQHEWARFEMERAHWEVERAELQARIAFLQGERKGQENLKKDLVRRIKMLEYALKQERAKYHKLKYGTELNQGDLKMPTFESEETKDTEAPTAPQNSQLTWKQGRQLLRQYLQEVGYTDTILDVRSQRVRSLLGLSNSEPNGSVETKNLEQILNGGESPKQKGQEIKRSSGDVLETFNFLENADDSDEDEENDMIEGIPEGKDKHRMNKHKIGNEGLAADLTDDPDTEEALKEFDFLVTAEDGEGAGEARSSGDGTEWDKDDLSPTAEVW
notes: source: E. coli BL21 (DE3) CodonPlus, purified
B9: the binding result in data set [4] is given as “binds”.

B10: MBP-tagged STRN3 fragment (residues 64–341) (domain or fragment, human, UniProt Q13033 64-341, looked up)
chain: TIPGILHYIQHEWARFEMERAHWEVERAELQARIAFLQGERKGQENLKKDLVRRIKMLEYALKQERAKYHKLKYGTELNQGDLKMPTFESEETKDTEAPTAPQNSQLTWKQGRQLLRQYLQEVGYTDTILDVRSQRVRSLLGLSNSEPNGSVETKNLEQILNGGESPKQKGQEIKRSSGDVLETFNFLENADDSDEDEENDMIEGIPEGKDKHRMNKHKIGNEGLAADLTDDPDTEEALKEFDFLVTAEDGEGAGEARSSGDGTEWDKDDLSPTAEVW
notes: source: E. coli BL21 (DE3) CodonPlus, purified; not shown: MBP, N-terminal, kept
With B10, the binding result in [1] was “binds”.

Regarding B11, the “stoichiometry N” value in [11] turned out to be 2; in [12], 4.

B12: STRIP1 (765–837) (domain or fragment, UniProt Q5VSL9 765-837, looked up)
chain: QAEECALRANIERFNARRYDRAHSNPDFLPVDNCLQSVLGQRVDLPEDFQMNYDLWLEREVFSKPISWEELLQ
Turning to B12, the Kd in data set [13] was found to be 1.6 µM.

The stoichiometry N is a count of units in the complex or per binding partner. By Kd is commonly meant the constant that tells how readily two partners part at equilibrium. A lower Kd goes with a tighter complex.
